Experimental data reported in US20250282880A1 (NUMAB THERAPEUTICS, published 2025).

Tests used:
Biotinylated IL-4R [1] = molecular target: T1, Biotinylated IL-4R (human, UniProt P24394 26-232, limits assumed, biotinylated); assay: competitive ELISA: IL-4 coated, biotinylated IL-4R preincubated with antibody (plate of PRO1898)
T1 construct: also called human IL-4R; hIL-4R

IL-4R on HEK-Blue cells = IL-4R on HEK-Blue cells (human, UniProt P24394 26-825); assay: cell-based or functional assay
Biotinylated IL-4R [2] = molecular target: T1, Biotinylated IL-4R; assay: competitive ELISA: human IL-4 coated on the plate, biotinylated IL-4R preincubated with the antagonist, bound IL-4R detected with streptavidin-HRP; blocked ligand human IL-4
Biotinylated IL-4R [3] = molecular target: T1, Biotinylated IL-4R; assay: competitive ELISA: IL-4 coated, biotinylated IL-4R preincubated with antibody (plate of PRO1899)
Biotinylated IL-4R [4] = molecular target: T1, Biotinylated IL-4R; assay: competitive ELISA: human IL-4 coated on the plate, biotinylated IL-4R preincubated with the antagonist, bound IL-4R detected with streptavidin-HRP; blocked ligand human IL-4 [continued) E]
Biotinylated IL-4R [5] = molecular target: T1, Biotinylated IL-4R; assay: competitive ELISA: human IL-4 coated on the plate, biotinylated IL-4R preincubated with the antagonist, bound IL-4R detected with streptavidin-HRP; blocked ligand human IL-4; remark: listed apart in the source
Biotinylated IL-4R [6] = molecular target: T1, Biotinylated IL-4R; assay: as above; remark: listed apart in the source
Biotinylated IL-4R [7] = molecular target: T1, Biotinylated IL-4R; assay: as above; remark: listed apart in the source
cynomolgus IL-4R-Fc = molecular target: T2, cynomolgus IL-4R-Fc (cynomolgus monkey (Macaca fascicularis), UniProt A0A2K5V580 33-239); assay: SPR, capture setup: cynomolgus IL-4R-Fc captured, scFv as analyte
T2 construct: also called cynomolgus IL-4R (capture setup); not shown: Fc part

Biotinylated IL-4R [8] = molecular target: T1, Biotinylated IL-4R; assay: competitive ELISA: IL-4 coated, biotinylated IL-4R preincubated with scFv
From the text: Bound biotinylated IL-4R was then detected using streptavidin-HRP.

Human IL-4R-Fc = molecular target: T3, Human IL-4R-Fc (human, UniProt P24394 26-232); assay: SPR (Biacore T200), human IL-4R-Fc captured, scFv as analyte 0.12 to 90 nM, 1:1 model
T3 construct: not shown: Fc part (captured via anti-human IgG-Fc)
Description: Affinity of the 16 humanized scFvs (derived from 5 rabbit monoclonal antibodies) to human IL-4R was determined by SPR analysis on a T200 device (Biacore, GE Healthcare). Human IL-4R-Fc was captured via an anti-human IgG-Fc coupled to a carboxylmethylated dextran surface and the scFvs were injected as analyte. After each analyte injection cycle the sensor chip was regenerated and new antigen was captured. The scFvs were measured using a dose response multi-cycle kinetic assay with seven analyte concentrations ranging from 0.12 to 90 nM diluted in running buffer. Obtained sensorgrams were fitted using a 1:1 binding model.
The scFvs were measured using a dose response multi-cycle kinetic assay with seven analyte concentrations ranging from 0.12 to 90 nM diluted in running buffer. Obtained sensorgrams were fitted using a 1:1 binding model.

B1: dupilumab (antibody, V domains shown)
VH: EVQLVESGGGLEQPGGSLRLSCAGSGFTFRDYAMTWVRQAPGKGLEWVSSISGSGGNTYYADSVKGRFTISRDNSKNTLYLQMNSLRAEDTAVYYCAKDRLSITIRPRYYGLDVWGQGTTVTVSS
VL: DIVMTQSPLSLPVTPGEPASISCRSSQSLLYSIGYNYLDWYLQKSGQSPQLLIYLGSNRASGVPDRFSGSGSGTDFTLKISRVEAEDVGFYYCMQALQTPYTFGQGTKLEIKR
Biotinylated IL-4R [1]
  IC50: 6.78 ng/mL
  rel. IC50 (IC50, dupilumab/IC50, test sample): 1 ratio
IL-4R on HEK-Blue cells
  IC50, neutralization of hIL-4 induced signaling in reporter gene assay: 1.15 ng/mL
  IC50, neutralization of hIL-13 induced signaling in reporter gene assay: 1 ng/mL
  rel. IC50 (IC50, dupilumab/IC50, test sample), hIL-4 induced signaling: 1 ratio
  rel. IC50 (IC50, dupilumab/IC50, test sample), hIL-13 induced signaling: 1 ratio
Biotinylated IL-4R [2]
  IC50 (read off the curve): ~2 ng/mL
Biotinylated IL-4R [3]
  IC50: 6.18 ng/mL
  rel. IC50 (IC50, dupilumab/IC50, test sample): 1 ratio
Biotinylated IL-4R [4]
  IC50 (read off the curve): ~2 ng/mL
Biotinylated IL-4R [5]
  IC50 (read off the curve): ~2 ng/mL
Biotinylated IL-4R [6]
  IC50 (read off the curve): ~3 ng/mL
Biotinylated IL-4R [7]
  IC50 (read off the curve): ~2 ng/mL

B2: PRO1899 (scFv)
scFv: DIQMTQSPSSLSASVGDRVTITCQASEDIESYLAWYQQKPGKAPKLLIYRASTLAYGVPSRFSGSGSGTDFTLTISSLQPEDFATYYCLGSSYSTGSNIFGTGTKVTVLGGGGGSGGGGSGGGGSGGGGSEVQLVESGGGRVQPGGSLRLSCAASGFSSSSAHYMCWVRQAPGKGLEWIGCIYAGSRGSTYYASWAKGRFTISKASSTTVYLQMNSLRAEDTATYYCARAAFVNRGVSWIWPYYFSLWGQGTQVTVSS
notes: optimized variant of PRO1517 (VH L12R, V103T, L144Q and RDNSKN changed to KASST, AHo 82-87); scFv VL-linker-VH; also called 44-34-C10-sc09
IL-4R on HEK-Blue cells
  IC50, neutralization of hIL-4 induced signaling in reporter gene assay: 0.71 ng/mL
  IC50, neutralization of hIL-13 induced signaling in reporter gene assay: 0.56 ng/mL
  rel. IC50 (IC50, dupilumab/IC50, test sample), hIL-4 induced signaling: 1.61 ratio
  rel. IC50 (IC50, dupilumab/IC50, test sample), hIL-13 induced signaling: 1.8 ratio
Cynomolgus IL-4R-Fc
  Kd: 12 pM
  koff: 0.00014 s⁻¹
  kon: 1.1e+07 M⁻¹ s⁻¹
Biotinylated IL-4R [8]
  IC50: 2.98 ng/mL
  rel. IC50 (IC50, dupilumab/IC50, test sample): 2.07 ratio
Human IL-4R-Fc
  Kd: 6.92 pM
  koff: 2.04e-05 s⁻¹
  kon: 2.95e+06 M⁻¹ s⁻¹
